Patent publication US20200255508A1 (AbbVie / Abbott, published 2020)
Where a chain is given by its changes, count along the chain named. Where two headings read alike, the source gives them in different places.

What was measured:
[1] = target: T1, human DLL4 on the cell surface (human, UniProt Q9NR61 27-685); assay: competition FACS, competitor huNotch-1
T1 construct: whole, on cells; also called HEK293-hDLL4; hDLL4-293G
Description: (§1) Notch blocking assay: Briefly, stable cell lines overexpressing cell-surface DLL4 were harvested from tissue culture flasks and re-suspended in phosphate buffered saline (PBS) containing 1% bovine serum albumin and 1 mM CaCl₂ (FACS buffer). HEK293-hDLL4 or HEK293-mDLL4 cells were dispensed into 96-well plate (v-bottom) at 1.5×10⁵ cells/well in FACS buffer. […] After washing the cells two times with FACS buffer, 50 μL of R-phycoerythrin-conjugated streptavidin (1:150 dilution in FACS buffer) (Jackson ImmunoResearch, West Grove, Pa., US, catalog no. 016-110-084) were added. Following an incubation on ice (4° C., 60 minutes), cells were washed three times and resuspended in FACS buffer. Fluorescence was measured using a Becton Dickinson FACSCalibur-HTS (Becton Dickinson, San Jose. Calif.).

[2] = target: T2, mouse DLL4 on the cell surface (mouse, UniProt Q9JI71 27-686); assay: competition FACS, competitor huNotch-1
T2 construct: whole, on cells; also called HEK293-mDLL4; mDLL4-293G
T2 sequence (Q9JI71 27-686): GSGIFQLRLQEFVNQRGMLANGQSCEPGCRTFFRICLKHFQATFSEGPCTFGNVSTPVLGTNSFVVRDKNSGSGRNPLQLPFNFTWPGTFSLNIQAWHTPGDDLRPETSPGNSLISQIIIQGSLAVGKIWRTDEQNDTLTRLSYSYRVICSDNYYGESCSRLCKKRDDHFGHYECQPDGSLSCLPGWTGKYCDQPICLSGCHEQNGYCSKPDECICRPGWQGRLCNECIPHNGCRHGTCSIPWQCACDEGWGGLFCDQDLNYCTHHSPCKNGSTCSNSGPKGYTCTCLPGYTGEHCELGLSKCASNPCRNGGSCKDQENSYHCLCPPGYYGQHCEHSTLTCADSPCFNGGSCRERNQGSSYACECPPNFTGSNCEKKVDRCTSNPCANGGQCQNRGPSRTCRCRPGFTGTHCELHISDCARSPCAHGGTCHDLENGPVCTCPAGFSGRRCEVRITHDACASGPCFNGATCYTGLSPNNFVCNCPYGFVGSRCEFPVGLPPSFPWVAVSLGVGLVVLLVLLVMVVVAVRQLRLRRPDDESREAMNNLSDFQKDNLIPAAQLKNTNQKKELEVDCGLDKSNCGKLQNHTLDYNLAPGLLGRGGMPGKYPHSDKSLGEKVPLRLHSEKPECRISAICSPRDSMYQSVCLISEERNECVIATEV
Description: as §1

[3] = target: T3, mouse DLL4-his (mouse, UniProt Q9JI71 27-532); assay: ELISA on DLL4-his
T3 construct: extracellular domain; not shown: his tag
T3 sequence (Q9JI71 27-532): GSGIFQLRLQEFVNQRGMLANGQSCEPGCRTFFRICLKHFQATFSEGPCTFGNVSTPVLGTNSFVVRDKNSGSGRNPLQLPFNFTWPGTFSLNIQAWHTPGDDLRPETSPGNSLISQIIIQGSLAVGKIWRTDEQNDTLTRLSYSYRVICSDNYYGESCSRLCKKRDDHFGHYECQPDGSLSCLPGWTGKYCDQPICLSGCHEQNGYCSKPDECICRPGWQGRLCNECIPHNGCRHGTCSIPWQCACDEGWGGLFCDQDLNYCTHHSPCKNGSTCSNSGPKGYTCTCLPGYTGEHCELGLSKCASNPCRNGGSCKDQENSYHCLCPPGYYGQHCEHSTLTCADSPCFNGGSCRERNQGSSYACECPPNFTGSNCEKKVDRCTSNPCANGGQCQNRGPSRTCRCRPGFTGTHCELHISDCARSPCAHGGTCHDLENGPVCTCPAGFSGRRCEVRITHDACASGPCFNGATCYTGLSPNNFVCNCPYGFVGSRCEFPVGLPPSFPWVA

[4] = target: T4, human DLL4-his (human, UniProt Q9NR61 27-529); assay: ELISA on DLL4-his
T4 construct: extracellular domain
Description: (§2) After the final wash, plates were incubated with 100 μl/well ELISA substrate (Sigma # T8665). The reaction was stopped after 8 minutes at 25° C. with 100 μl/well 1N HCl and the absorbance was read at 450 nm. Data were analyzed using Graphpad Prism software and EC50 values were reported.

[5] = target: T5, mouse DLL4 extracellular domain (mouse, UniProt Q9JI71 27-532); assay: competition ELISA, competitor huNotch-1
T5 construct: extracellular domain; also called muDLL4 ECD; Mouse DLL4 ECD
T5 sequence (Q9JI71 27-532): as above
Description: (§3) Plates were then washed 3 times with wash buffer (PBS, 0.05% Tween-20) and blocked with 200 μl/well blocking buffer (D-PBS, 1% BSA, 1 mM CaCl₂, 0.05% Tween-20) for 1 hour at 25° C. […] Assay plates were washed after blocking, and incubated with DLL4/antibody mixtures (100 μl/well, 1 hour at 25° C. with shaking). […] After a final wash, plates were developed using 100 μl/well substrate (TMB Sigma # T8665), and the reaction was stopped after an 8-minute incubation at 25° C. (for muDLL4 ELISA) and after 20 minute incubation at 25° C. (for huDLL4 ELISA) using 100 μl/well 1N HCl, and the absorbance was read at 450 nm.

[6] = target: T6, human DLL4 extracellular domain (human, UniProt Q9NR61 27-529); assay: competition ELISA, competitor huNotch-1
T6 construct: extracellular domain; coated on plates in the sVEGFR1 assay; also called huDLL4 ECD; Human DLL4 ECD
Description: as §3

[7] = target: T5, mouse DLL4 extracellular domain; assay: Biacore SPR
Description: (§4) The BIACORE® surface plasmon resonance assay (Biacore, Inc., Piscataway, N.J., US) determines the affinity of antibodies with kinetic measurements of on-rate and off-rate constants. Binding of DLL4 antibodies to a purified recombinant DLL4 extracellular domain is determined by surface plasmon resonance-based measurements with a Biacore® instrument (either a Biacore 2000, Biacore 3000, or Biacore T100, GE Healthcare, Piscataway, N.J. US) using running buffer HBS-EPB (10 mM HEPES [pH 7.4], 150 mM NaCl, 3 mM EDTA, 0.1 mg/ml BSA and 0.005% surfactant P20) at 25° C. For example, approximately 9000 RU of goat anti-human Fc specific polyclonal antibody (Thermo Fisher Scientific Inc., Rockford, Ill., US) diluted in 10 mM sodium acetate (pH 4.5) is directly immobilized across a CM5 research grade biosensor chip using a standard amine coupling kit according to manufacturer's instructions and procedures at 25 μg/ml. Unreacted moieties on the biosensor surface are blocked with ethanolamine. For kinetic analysis, rate equations derived from the 1:1 Langmuir binding model are fitted simultaneously to multiple antigen injections (using global fit analysis) with the use of Scrubber 2 (BioLogic Software). […] The equilibrium dissociation constant KD (M) of the reaction between antibodies and the target antigen is then calculated from the kinetic rate constants by the following formula: KD=Koff/Kₒₙ. Binding is recorded as a function of time and kinetic rate constants are calculated. In this assay, on-rates as fast as 10⁶ M⁻¹s⁻¹ and off-rates as slow as 10⁻⁶ s⁻¹ can be measured.

[8] = target: T1, human DLL4 on the cell surface; assay: FACS on DLL4 cells
Description: (§5) Stable cell lines overexpressing cell-surface DLL4 were harvested from tissue culture flasks, washed four times and resuspended in phosphate buffered saline (PBS) containing 1% bovine serum albumin and 1 mM CaCl₂ (FACS buffer), 1.5×10³ cells were incubated with antibodies at various concentrations in FACS buffer for 60 minutes on ice. Cells were washed twice and 50 μL of R-phycoerythrin-conjugated anti-rat IgG. […] Following an incubation on ice (4° C., 60 minutes), cells were washed three times and resuspended in FACS buffer. Fluorescence was measured using a Becton Dickinson FACSCalibur-HTS (Becton Dickinson, San Jose. Calif., US). Data were analyzed using Graphpad Prism software and EC₅₀ values were reported as the concentration of antibody to achieve 50% of maximal DLL4 antibodies binding to DLL4 expressing cells.

[9] = target: T2, mouse DLL4 on the cell surface; assay: FACS on DLL4 cells
Description: as §5

[10] = target: T6, human DLL4 extracellular domain; assay: Biacore SPR (*historic data); historic data, not from the same run as the other cells
[11] = target: T1, human DLL4 on the cell surface; assay: FACS on DLL4 cells; remark: listed apart in the source
Description: as §5

[12] = target: T2, mouse DLL4 on the cell surface; assay: FACS on DLL4 cells; remark: listed apart in the source
Description: as §5

[13] = target: T5, mouse DLL4 extracellular domain; assay: competition ELISA, competitor huNotch-1; remark: listed apart in the source
Description: as §3

[14] = target: T6, human DLL4 extracellular domain; assay: competition ELISA, competitor huNotch-1; remark: listed apart in the source
Description: as §3

[15] = target: T5, mouse DLL4 extracellular domain; assay: capture ELISA
Description: (§6) ELISA plates were washed 3 times with wash buffer (PBS, 0.05% Tween-20) and then blocked with 200 ml/well blocking buffer (D-PBS, 1% BSA, 1 mM CaCl₂, 0.05% Tween-20) for 1 hour at 25° C. Plates were washed 3 times and incubated with 100 μl/well DLL4 antibodies (0.0001-100 nM, 10-fold serial dilution in blocking buffer) for 1 hour at 25° C., and then washed again 3 times. […] The reaction was stopped after 2 minutes at 25° C. with 100 μl/well 2 N H2SO₄ and the absorbance was read at 450 nm. Data were analyzed using Graphpad Prism software and EC₅₀ values were reported.

[16] = target: T6, human DLL4 extracellular domain; assay: capture ELISA
Description: as §6

[17] = target: T1, human DLL4 on the cell surface; assay: competition FACS, competitor huNotch-1; remark: listed apart in the source
Description: as §1

[18] = target: T2, mouse DLL4 on the cell surface; assay: competition FACS, competitor huNotch-1; remark: listed apart in the source
Description: as §1

[19] = target: T5, mouse DLL4 extracellular domain; assay: cell-based or functional assay
[20] = target: T6, human DLL4 extracellular domain; assay: cell-based or functional assay
[21] = target: T1, human DLL4 on the cell surface; assay: cell-based or functional assay
[22] = target: T7, rat DLL4 extracellular domain (rat, UniProt D3ZHH1 28-530); assay: Biacore SPR
T7 construct: extracellular domain; also called ratDLL4 ECD
T7 sequence (D3ZHH1 28-530): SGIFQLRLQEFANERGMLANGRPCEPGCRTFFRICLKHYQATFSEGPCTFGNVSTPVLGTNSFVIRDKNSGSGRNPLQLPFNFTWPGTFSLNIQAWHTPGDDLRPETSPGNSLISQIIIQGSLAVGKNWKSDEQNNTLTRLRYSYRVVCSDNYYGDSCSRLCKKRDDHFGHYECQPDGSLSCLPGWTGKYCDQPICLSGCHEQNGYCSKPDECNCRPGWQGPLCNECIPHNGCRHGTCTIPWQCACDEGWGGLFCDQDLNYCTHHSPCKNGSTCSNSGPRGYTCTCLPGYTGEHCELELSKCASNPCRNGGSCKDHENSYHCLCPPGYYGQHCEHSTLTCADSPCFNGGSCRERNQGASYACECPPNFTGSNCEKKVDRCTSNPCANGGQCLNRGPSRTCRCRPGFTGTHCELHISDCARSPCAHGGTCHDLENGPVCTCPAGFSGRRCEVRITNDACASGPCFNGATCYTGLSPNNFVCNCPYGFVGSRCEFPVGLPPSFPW
Description: (§7) Binding of DLL4 antibodies to a purified recombinant DLL4 extracellular domain is determined by surface plasmon resonance-based measurements with a Biacore® instrument (either a Biacore 2000, Biacore 3000, or Biacore T100, GE Healthcare, Piscataway, N.J. US) using running buffer HBS-EPB (10 mM HEPES [pH 7.4], 150 mM NaCl, 3 mM EDTA, 0.1 mg/ml BSA and 0.005% surfactant P20) at 25° C. For example, approximately 9000 RU of goat anti-human Fc specific polyclonal antibody (Thermo Fisher Scientific Inc., Rockford, Ill., US) diluted in 10 mM sodium acetate (pH 4.5) is directly immobilized across a CM5 research grade biosensor chip using a standard amine coupling kit according to manufacturer's instructions and procedures at 25 μg/ml. Unreacted moieties on the biosensor surface are blocked with ethanolamine. For kinetic analysis, rate equations derived from the 1:1 Langmuir binding model are fitted simultaneously to multiple antigen injections (using global fit analysis) with the use of Scrubber 2 (BioLogic Software). […] The equilibrium dissociation constant KD (M) of the reaction between antibodies and the target antigen is then calculated from the kinetic rate constants by the following formula: KD=Koff/Kₒₙ. Binding is recorded as a function of time and kinetic rate constants are calculated. In this assay, on-rates as fast as 10⁶ M⁻¹s⁻¹ and off-rates as slow as 10⁻⁶ s⁻¹ can be measured.

[23] = target: T5, mouse DLL4 extracellular domain; assay: Biacore SPR; remark: listed apart in the source
Description: as §7

[24] = target: T6, human DLL4 extracellular domain; assay: Biacore SPR
Description: as §7

[25] = target: T5, mouse DLL4 extracellular domain; assay: Biacore SPR; remark: listed apart in the source
Description: as §4

[26] = target: T6, human DLL4 extracellular domain; assay: Biacore SPR; remark: listed apart in the source
Description: as §4

[27] = target: T5, mouse DLL4 extracellular domain; assay: competition ELISA, competitor huNotch-1; remark: listed apart in the source
Description: as §3

[28] = target: T6, human DLL4 extracellular domain; assay: competition ELISA, competitor huNotch-1; remark: listed apart in the source
Description: as §3

[29] = target: T6, human DLL4 extracellular domain; assay: Biacore SPR; remark: listed apart in the source
Description: as §4

[30] = target: T1, human DLL4 on the cell surface; assay: competition FACS, competitor huNotch-1; remark: listed apart in the source
Description: as §1

[31] = target: T2, mouse DLL4 on the cell surface; assay: competition FACS, competitor huNotch-1; remark: listed apart in the source
Description: as §1

[32] = target: T3, mouse DLL4-his; assay: ELISA on DLL4-his; remark: listed apart in the source
Description: as §2

[33] = target: T4, human DLL4-his; assay: ELISA on DLL4-his; remark: listed apart in the source
Description: as §2

[34] = target: T1, human DLL4 on the cell surface; assay: FACS on DLL4 cells; remark: listed apart in the source
Description: as §5

[35] = target: T2, mouse DLL4 on the cell surface; assay: FACS on DLL4 cells; remark: listed apart in the source
Description: as §5

[36] = target: T2, mouse DLL4 on the cell surface; assay: FACS on DLL4 cells (*historic data)
[37] = target: T1, human DLL4 on the cell surface; assay: cell-based or functional assay; remark: listed apart in the source
[38] = target: T1, human DLL4 on the cell surface; assay: competition FACS, competitor huNotch-1; remark: listed apart in the source
Description: as §1

[39] = target: T2, mouse DLL4 on the cell surface; assay: competition FACS, competitor huNotch-1; remark: listed apart in the source
Description: as §1

[40] = target: T5, mouse DLL4 extracellular domain; assay: competition ELISA, competitor huNotch-1; remark: listed apart in the source
Description: as §3

[41] = target: T6, human DLL4 extracellular domain; assay: competition ELISA, competitor huNotch-1; remark: listed apart in the source
Description: as §3

[42] = target: T5, mouse DLL4 extracellular domain; assay: Biacore SPR; remark: listed apart in the source
Description: as §7

[43] = target: T6, human DLL4 extracellular domain; assay: Biacore SPR; remark: listed apart in the source
Description: as §7

[44] = target: T1, human DLL4 on the cell surface; assay: FACS on DLL4 cells; remark: listed apart in the source
[45] = target: T2, mouse DLL4 on the cell surface; assay: FACS on DLL4 cells; remark: listed apart in the source
[46] = target: T5, mouse DLL4 extracellular domain; assay: capture ELISA; remark: listed apart in the source
Description: as §6

[47] = target: T6, human DLL4 extracellular domain; assay: capture ELISA; remark: listed apart in the source
Description: as §6

[48] = target: T2, mouse DLL4 on the cell surface; assay: competition FACS, competitor huNotch-1; competition FACS, huNotch-1/DLL4 cells (IC50)
Description: as §1

B1: E9-SE1 (antibody, V domains shown)
VH: EVQLVESGGGLVQPGGSLRLSCAVSGGSISSSSYYWGWIRQAPGKGLEWIGDIYYTGSTYYNPSLKSRVTISVDTSKNSFYLQMNSLRAEDTAVYYCAREDVILRGGSDYWGQGTLVTVSS
VL: LYVLTQPPSVSVSPGQTASITCSGQRLGDKYASWYQQKPGQSPVLVIYEDSKRPSGIPERFSGSNSGDTATLTISGTQTMDEADYLCQAWDRDTGVFGGGTKVTVLG
notes: full-length human IgG1
- IC50 [1]: 8.51 nM
- IC50 [2]: 1.71 nM
- EC50 [3]: 0.19 nM
- EC50 [4]: 0.16 nM
- IC50 [5]: 2.9 nM
- IC50 [6]: 2.7 nM
- Kd [7]: 12.8 nM
- Kd [8]: 3.45 nM
- Kd [9]: 1.34 nM
- Kd [10]: 15.2 nM

B2: E9 (antibody, IgG1, V domains shown)
VH: EVQLQESGPGLVKPSETLSLTCTVSGGSISSSSYYWGWIRQPPGKGLEWIGDIYYTGSTYYNPSLKSRVTISVDTSKNQFSLKLSSVTAADTAVYYCAREDVILRGGSDYWGQGTLVTVSS
VL: SYELTQPPSVSVSPGQTASITCSGQRLGDKYASWYQQKPGQSPVLVIYEDSKRPSGIPERFSGSNSGDTATLTISGTQPMDEADYYCQAWDRDTGVFGYGTRVTVL
notes: also called anti-DLL4 PROfusion antibody E9
- EC50 [11]: 7.23 nM
- EC50 [12]: 0.32 nM
- IC50 [13]: 2.1 nM
- IC50 [14]: 1.7 nM
- EC50 [15]: 0.18 nM
- EC50 [16]: 0.17 nM
- IC50 [17]: 23.4 nM
- IC50 [18]: 3.2 nM
- sVEGFR1 Inhibition (IC50, nM) DLL4 ECD/EaHy cells, mu [19]: 0.4 nM
- sVEGFR1 Inhibition (IC50, nM) DLL4 ECD/EaHy cells, hu [20]: 1 nM
- Inhibition of Notch activation via huDLL4 cells, coculture (IC50, nM) [21]: 6.2 nM
- Kd [22]: 15 nM
- koff [22]: 0.00029 s⁻¹
- kon [22]: 19000 M⁻¹ s⁻¹
- Kd [23]: 16 nM
- koff [23]: 0.00026 s⁻¹
- kon [23]: 18000 M⁻¹ s⁻¹
- Kd [24]: 3.36 nM
- koff [24]: 6.6e-05 s⁻¹
- kon [24]: 20000 M⁻¹ s⁻¹

B3: E9.1 (antibody, human IgG1, V domains shown)
VH: B2 VH
VL: B1 VL with L1S, V3E, T79P, L86Y, G99Y, K102R
- Kd [25]: 1.1 nM
- Kd [26]: 0.52 nM
- IC50 [1]: 4.55 nM
- IC50 [2]: 1.02 nM
- EC50 [3]: 0.34 nM
- EC50 [4]: 0.29 nM
- IC50 [27]: 5.85 nM
- IC50 [28]: 2.2 nM
- IC50 [5]: 2.5 nM
- IC50 [6]: 2.5 nM
- Kd [7]: 12.8 nM
- Kd [29]: 2.38 nM
- Kd [8]: 0.35 nM
- IC50 [30]: 1.62 nM
- IC50 [31]: 1.06 nM
- EC50 [32]: 0.04 nM
- EC50 [33]: 0.03 nM
- Kd [34]: 3.62 nM
- Kd [35]: 1.66 nM
- Kd [36]: 1.6 nM

B4: E9.71 (antibody, V domains shown)
VH: B2 VH with E100Q, D101A, V102L, I103A, L104M, R105G, Y110K
VL: B2 VL with R102K
notes: also called DLL4-E9-71 hIgG1/L
- Inhibition of Notch activation via huDLL4 cells, coculture (IC50, nM) [37]: 2.1 nM
- IC50 [38]: 3.22 nM
- IC50 [39]: 0.24 nM
- IC50 [40]: 1.3 nM
- IC50 [41]: 2 nM
- Kd [42]: 6.08 nM
- koff [42]: 0.000216 s⁻¹
- kon [42]: 35500 M⁻¹ s⁻¹
- Kd [43]: 0.91 nM
- koff [43]: 3.51e-05 s⁻¹
- kon [43]: 38800 M⁻¹ s⁻¹
- EC50 [44]: 1.82 nM
- EC50 [45]: 0.32 nM
- EC50 [46]: 0.17 nM
- EC50 [47]: 0.16 nM

B5: E9.16 (antibody, V domains shown)
VH: B2 VH
VL: B2 VL with Q25E, A32V, S51F, R102K
notes: also called DLL4-E9-16 hIgG1/L
- IC50 [38]: 12.6 nM
- Kd [42]: 8.1 nM
- koff [42]: 0.000148 s⁻¹
- kon [42]: 18300 M⁻¹ s⁻¹
- Kd [43]: 2.45 nM
- koff [43]: 3.15e-05 s⁻¹
- kon [43]: 12900 M⁻¹ s⁻¹
- EC50 [44]: 1.7 nM
- IC50 [48]: 1.1 nM

B6: A10 (antibody, IgG1, V domains shown)
VH: EVQLLESGGGLVKSGGSLRLSCAASGFTFRSHWMSWVRQAPGKGLEWVAIISYDGSNKYSADSVKGRFTISRDNSKNTLYLQLNSLRAEDTAVYYCAKAGGGNVGFDIWGQGTMVTVSS
VL: LPVLTQPPSVSVSPGQTASITCSADKLGTKYVSWYQQKPGQSPVLVIYQDAKRPSGIPERFSGSNSGNTATLTISGTQTMDEADYLCQSWDRSDVVFGGGTKVTVL
notes: also called anti-DLL4 PROfusion antibody A10
- EC50 [11]: 0.93 nM
- IC50 [14]: 2.6 nM
- EC50 [16]: 0.17 nM
- IC50 [17]: 4.4 nM
- sVEGFR1 Inhibition (IC50, nM) DLL4 ECD/EaHy cells, hu [20]: 1.5 nM
- Inhibition of Notch activation via huDLL4 cells, coculture (IC50, nM) [21]: 7.3 nM
- binding result [22]: no binding (tested: 900 nM DLL4)
- binding result [23]: no binding (tested: 900 nM DLL4)
- Kd [24]: 6.68 nM
- koff [24]: 0.00015 s⁻¹
- kon [24]: 22000 M⁻¹ s⁻¹
